# Experimental data published in article PMC2191102.
# Molecular target: moth cytochrome c, MCC(99K), wild-type peptide peptide on I-Ek (mouse)
# Test: C1/2wt: antigen concentration for half-maximal IL-2 with wild-type I-Ek CHO APC
substance,measurement,value
2B4,EC50 of peptide,0.025 µM
